The values that follow come from publication PMC10273338.

In this assay the target is T1, HspB8, Q9UJY1.
T1 chain: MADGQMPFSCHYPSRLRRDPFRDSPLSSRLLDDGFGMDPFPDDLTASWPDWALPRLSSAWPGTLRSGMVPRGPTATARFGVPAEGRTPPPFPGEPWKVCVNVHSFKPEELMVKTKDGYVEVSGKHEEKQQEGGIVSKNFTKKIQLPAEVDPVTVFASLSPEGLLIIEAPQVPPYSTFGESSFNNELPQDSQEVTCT
Nature of the assay: SPR; BIACORE X; HspB8 amine-coupled to a CM5 chip (7400 RU); running buffer 10 mM HEPES pH 7.4, 150 mM NaCl, 3 mM EDTA, 0.005% P20; 10 uL/min; Langmuir 1:1 fit. As to conditions: remark: other sources report otherwise. For orientation: Surface plasmon resonance follows binding to a sensor surface in real time, without labels.

B1: HspB8, Q9UJY1 1-196 (natural protein)
chain: MADGQMPFSCHYPSRLRRDPFRDSPLSSRLLDDGFGMDPFPDDLTASWPDWALPRLSSAWPGTLRSGMVPRGPTATARFGVPAEGRTPPPFPGEPWKVCVNVHSFKPEELMVKTKDGYVEVSGKHEEKQQEGGIVSKNFTKKIQLPAEVDPVTVFASLSPEGLLIIEAPQVPPYSTFGESSFNNELPQDSQEVTCT
Regarding B1, the Ka was found to be 5.2e+06 M⁻¹; the Kd – broadly, the equilibrium constant for the complex coming apart – came out at 190 nM; the koff (as a rule, the rate constant with which the complex falls apart) stood at 0.00048 s⁻¹; the kon (usually the rate constant with which the complex forms) is 2500 M⁻¹ s⁻¹.
